# Test results taken from paper PMC3977997, “Engineering the Expression and Characterization of Two Novel Laccase Isoenzymes from Coprinus comatus in Pichia pastoris by Fusing an Additional Ten Amino Acids Tag at N-Terminus” (PLoS ONE, 2014).
# B1: Lac4 (Coprinus comatus) (protein)
# chain: LSVGPRATLTLTNDVVAPDGFERSAIVVNGGHPGPLIQANKGDAYTINVVNRLTDSTMQRVSSIHWHGLSQRGTNWADGGSGVNQCPISPNHSFEYQFSGRKDQAGTFWYHSHYSIQYCDGLRGPLVIYDPNDPFKNLYDVDDESTVITLTDWYHTPFPSVTGPPTSDSTLINGKGRYPGGPNVDLSVINVERGKRYRFRLVALTCENSHLFGIDGHQLLVIETGGESTVPTLVDKITLLAGQRYSFVLDANQAVDNYWIRGLPRSGVPSLKAGYEGGLNSAILRYQGAPITEPQTTDNENAALLDEAQLVPTRNPFAPGRPTSGGADFNVTVNFELDLTTGSPHFKLNGKIYQPPTVPILLQIISGARKAEELLPEGNIYFVPRNKVVEVTVPGGIPGAPHPMHLHGHHFSVVKSAGKHNQVNYLTPVRRDTTASPVEVDDNTTIRFTTDSPGPWIFHCHFNKHQSIGMAVVFVADIDEVAEKNPTPDAWNDLCPIYQSLSESETVVEIVPMVKH
# notes: mature form (532-aa precursor, 16-aa putative signal peptide removed); pPICZalphaB-10AALac4; secreted from Pichia pastoris KM71H; glycosylated, about 70 kDa (52 kDa after endoH)
# B2: Lac3 (Coprinus comatus) (protein)
# chain: SVLIPHSTLTLTNQLIAPDGFQRSAIVVNGEHPGPLIQATKGDGFMVNVVNQLTDPTMQRAASVHWHGLSQRGTNWADGATGVNQCPISPNHSFEYTFTGGDSQAGTFWYHSHYFLQYCDGLRGPLVIYDPEDPWKNLYDVDDESTVLTLADWYHTPFPSIPGFPLPESTLINGKGRYPDGPNVDLSIVNVEKGKRYRFRLVSLACETSYLFGIDGHQLQVIETDGQNTVPVVVDKLRIFAGQRYSFVLDANQNIDNYWVRSLPANGMPKLVAGYEGGINSAILRYRGAPISDPQTNDNQNLILLEEAKLVPAQDPFPPGNPTAGGADFNVTLNFVLDVDLASGEPQFKLNDKVYRPPSVPILLKILSGARRPEELLPEGNLFSVPRDKVIEVTVPGGIAAGPHPMHLHGHTFSVVKSAGKNNQPNYLTPVRRDVTATSQEVDDYITIRFTTDNPGPWLLHCHLNKHHESGMVVVFVADVDSVAEENPVPDAWNDLCPIYDALSDAEKEVKIVSSLPMPV
# notes: mature form (547-aa precursor, 28-aa putative signal peptide removed); pPICZalphaB-10AALac3; secreted from Pichia pastoris KM71H; glycosylated, about 75 kDa (55 kDa after endoH)
# Columns and labels:
# Test in all cases: purified protein
# Details in all cases: air oxygen
# purified protein [1] = substrate: COc1ccccc1O
# purified protein [2] = substrate: CCn1c(=NN=c2sc3cc(S(=O)(=O)O)ccc3n2CC)sc2cc(S(=O)(=O)O)ccc21; assay type: biochemical, Coprinus comatus
# purified protein [3] = substrate: COc1cc(C=NN=Cc2cc(OC)c(O)c(OC)c2)cc(OC)c1O; assay type: biochemical, Coprinus comatus
# purified protein [4] = substrate: Cc1cccc(C)c1O; assay type: biochemical, Coprinus comatus
# [5] = pH 6.0, optimal temperature 60 °C, 60.0 °C
# [6] = pH 3.0, optimal temperature 60 °C
# [7] = pH 6.0 (optimum elsewhere given as 5.5), optimal temperature 65 °C
# [8] = pH 5.5 (optimum elsewhere given as 6.0), optimal temperature 65 °C
# [9] = pH 5.0, optimal temperature 50 °C, 50.0 °C
# [10] = pH 3.0, optimal temperature 65 °C
# [11] = pH 5.0 (optimum elsewhere given as 5.5), optimal temperature 60 °C
# [12] = pH 5.5 (optimum elsewhere given as 5.0), optimal temperature 60 °C
protein,measurement,setting,value
B1,Km,purified protein [1]; [5],455 µM
same,kcat,purified protein [1]; [5],0.196 s⁻¹
same,kcat/Km,purified protein [1]; [5],503 M⁻¹ s⁻¹
same,Km,purified protein [2]; [6],205 µM
same,kcat,purified protein [2]; [6],1.47 s⁻¹
same,kcat/Km,purified protein [2]; [6],7170 M⁻¹ s⁻¹
same,Km,purified protein [3]; [7],204 µM
same,kcat,purified protein [3]; [7],44.7 s⁻¹
same,kcat/Km,purified protein [3]; [7],220000 M⁻¹ s⁻¹
same,Km,purified protein [4]; [8],7131 µM
same,kcat,purified protein [4]; [8],1.47 s⁻¹
same,kcat/Km,purified protein [4]; [8],206 M⁻¹ s⁻¹
B2,Km,purified protein [1]; [9],1114 µM
same,kcat,purified protein [1]; [9],0.418 s⁻¹
same,kcat/Km,purified protein [1]; [9],375 M⁻¹ s⁻¹
same,Km,purified protein [2]; [10],136 µM
same,kcat,purified protein [2]; [10],3.48 s⁻¹
same,kcat/Km,purified protein [2]; [10],25600 M⁻¹ s⁻¹
same,Km,purified protein [3]; [11],87 µM
same,kcat,purified protein [3]; [11],32 s⁻¹
same,kcat/Km,purified protein [3]; [11],367000 M⁻¹ s⁻¹
same,Km,purified protein [4]; [12],1374 µM
same,kcat,purified protein [4]; [12],0.307 s⁻¹
same,kcat/Km,purified protein [4]; [12],223 M⁻¹ s⁻¹
